Results on 83 variants are retold here after the RNAGym collection of RNA variant scans (doi:10.1073/pnas.2313332121).

Fewer inactive variants are shown than the library holds.

The chains are these.
B1: TPR 5TU (parent)
chain: GGAUCUUCUCGAUCUAACAAAAAAGACAAAUCUGCCACAAAGCUUGAGAGCAUCUUCGGAUGCAGAGGCGGCAGCCUUCGGUGGCGCGAUAGCGCCAACGUUCUCAACUAUGACACGCAAAACGCGUGCUCCGUUGAAUGGAGUUUAUCAUG

The variants in this data set derive from B1. Put plainly: polymerase ribozyme fitness, log enrichment relative to wild type (log ratio); higher = more active; in vitro selection for triplet polymerase activity. In short, it runs like this: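 For each subunit of a heterodimeric triplet polymerase ribozyme, a mutant library was built by PCR and transcribed, then taken through a single in vitro selection round in triplicate. Selection involved annealing to a biotinylated primer, the partner subunit and triplets, incubation frozen at −7 °C, gel excision of extended constructs, capture on streptavidin beads and RT-PCR. Genotypes were retained after Illumina sequencing of inputs and outputs only with ≥10 input reads and ≥1 read in each output. Fitness is defined as the logarithm of a genotype's enrichment relative to wild-type enrichment, using inverse-variance-weighted averages across replicates, with the logarithm taken to base 2.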
On to A52C C54U U78A C87U U135A, for which the “polymerase ribozyme fitness (log ratio)” value is ≤ -4.2. The figure for A52C C118U G143A U144C is -3.94; for C51G C87U C114G it is ≤ -4.2. Next, A49U C76A U77G C95G C96U C108U A142G: ≤ -4.2; C51U C87U C103A C116A: -2.08. Take C51U U53A A110C C116A: the “polymerase ribozyme fitness (log ratio)” value was ≤ -4.2. As for G50U C72U A97C, the “polymerase ribozyme fitness (log ratio)” value was -0.611. Next, G50A U55A A97C A147U U148A: ≤ -4.2; G50U A150G: -2.11; C51U G140U: -2.55.

Take A52C C108A: the “polymerase ribozyme fitness (log ratio)” value was ≤ -4.2. For G50A C116A, the “polymerase ribozyme fitness (log ratio)” value is -0.537. Consider G50A U55G A97G U102G, for which the “polymerase ribozyme fitness (log ratio)” value is -3.43. With C51G U55G C108A A119U G124A G141A U146A, the “polymerase ribozyme fitness (log ratio)” value is ≤ -4.2. As for G50U C105U, the “polymerase ribozyme fitness (log ratio)” value came out at 0.638.

In the case of C51U C79U, the “polymerase ribozyme fitness (log ratio)” value was -3.01. C51A A52C C75A G83U G88C A91G C123G G126U A147U U151G: the “polymerase ribozyme fitness (log ratio)” value was ≤ -4.2.

C51A C85A: the “polymerase ribozyme fitness (log ratio)” value is -2.75. G50C A66G C96U U146G: the “polymerase ribozyme fitness (log ratio)” value was ≤ -4.2. Next, A49U C51A U55G C95A: -2.79; A52C A60C: -2.71; A49U U55C U56A A73U C93U G117C: ≤ -4.2. On to C51A G81A A147G U148G, for which the “polymerase ribozyme fitness (log ratio)” value was ≤ -4.2.

For the variant G50U G74A C85U, the “polymerase ribozyme fitness (log ratio)” value was -3.88. As to A52C G83C, the “polymerase ribozyme fitness (log ratio)” value was -2.29. For the variant A49U A73U G88A C105A U144A, the “polymerase ribozyme fitness (log ratio)” value was ≤ -4.2.

For A52C U55A C72U A98U, the “polymerase ribozyme fitness (log ratio)” value was -3.14. The figure for A49U C54U G88C U90A C114U A142C is ≤ -4.2. Regarding G50A C93A A97G C99U U109G, the “polymerase ribozyme fitness (log ratio)” value was ≤ -4.2.

As for G50A C54G U77G A97U A120G, the “polymerase ribozyme fitness (log ratio)” value is ≤ -4.2. With C51U C93U U109G C116U, the “polymerase ribozyme fitness (log ratio)” value is -3.68. Next, C51A A52C C116U C118A A142U: ≤ -4.2; C51A C85U C103G G124A U145G A150G: ≤ -4.2.

For G50U C95A C125G, the “polymerase ribozyme fitness (log ratio)” value is -0.894. Consider A52C U53G C72U G83A G124A, for which the “polymerase ribozyme fitness (log ratio)” value is ≤ -4.2. The figure for A49U G133U is -3.93; for C51U G84A G117C U135A it is -0.541. Next, C51U C103A A121C: -1; A52G C57A A66G G68C C93U U101G G112U G140C U145A: ≤ -4.2; A52C G67A G74U G86U C93U A115G: ≤ -4.2. As to G50A G128U, the “polymerase ribozyme fitness (log ratio)” value is -3.21. The figure for G50U A113C U139G is -3.93; for C51A G124A it is -0.00389. Next, G50U C87U C114A: -3.78; G50U U77A C87A: ≤ -4.2; C51U G58A G92C G136A U148C: -3.3. Turning to G50U C95G U104A, the “polymerase ribozyme fitness (log ratio)” value was -1.95. Next, A52C C76G: ≤ -4.2; A52C C76A: ≤ -4.2; A49U A60U G81U A106G C118A U134C: -3.51. Next, A52C G88A C95U C99U A110U: -4.07; A52C C57A C69U C85U: -3.07; G50A G70A C75A: ≤ -4.2.

On to G50C G83A, for which the “polymerase ribozyme fitness (log ratio)” value was -3.65. Consider G50A C95A U111A U135A, for which the “polymerase ribozyme fitness (log ratio)” value was ≤ -4.2.

As for A52C G80C G84U C93U, the “polymerase ribozyme fitness (log ratio)” value is ≤ -4.2. Next, A49U G84U A97G C114G: ≤ -4.2. In the case of G50A G88U U127C, the “polymerase ribozyme fitness (log ratio)” value is ≤ -4.2.

C51U G141A: the “polymerase ribozyme fitness (log ratio)” value was found to be 0.523. For A52C G71A C85A G94C G141U, the “polymerase ribozyme fitness (log ratio)” value was ≤ -4.2. As for G50U U56A A91G C116U, the “polymerase ribozyme fitness (log ratio)” value is -2.81. Take G50A C54U G80A U82G G88A G92A C93G U145A: the “polymerase ribozyme fitness (log ratio)” value is ≤ -4.2. Next, G50U G83A A97U A98U: 0.0748. As to G50C U134A, the “polymerase ribozyme fitness (log ratio)” value was -3.17. Next, C51A G94C A107U: ≤ -4.2; A52C U53A U148G: ≤ -4.2. Take C51A C54G G59C G84A C116G: the “polymerase ribozyme fitness (log ratio)” value was -3.63.

Consider G50A C57G G81A C85U C116U, for which the “polymerase ribozyme fitness (log ratio)” value is -2.31. Next, A49U A52G C96U C99G: ≤ -4.2; A52C C132U: -2.24. For C51U C72U G80A C85A U109G, the “polymerase ribozyme fitness (log ratio)” value was ≤ -4.2. For the variant G50C G80A C85U C87U C108U, the “polymerase ribozyme fitness (log ratio)” value is ≤ -4.2. On to C51U A66C G74A U90G U111G, for which the “polymerase ribozyme fitness (log ratio)” value is ≤ -4.2. For the variant G50A C79A, the “polymerase ribozyme fitness (log ratio)” value was ≤ -4.2. Take G50A C51G G83U G84A G141U: the “polymerase ribozyme fitness (log ratio)” value is ≤ -4.2. As to A52G C54A C69A C87G U90C G100U C103A C105G, the “polymerase ribozyme fitness (log ratio)” value is ≤ -4.2.

With C51U G84C C87A C95A A122C A137U G141C, the “polymerase ribozyme fitness (log ratio)” value was ≤ -4.2. The figure for C51G G94C C149U is -3.9; for C51G U55A it is -2.88; for A52C U56C C103G G143C it is -4.12.

Consider G50A U61A G81U G83C A91U U104G G143A, for which the “polymerase ribozyme fitness (log ratio)” value was ≤ -4.2. Next, C51G U53G C75A C103A: ≤ -4.2; C51G G88A: ≤ -4.2.
